{
  "source": "paper PMC5778036",
  "molecular_target": "CCR5 expressed on the surface of pancreatic cancer cells (human (endogenous in AsPC-1, BxPC-3, MIA PaCa-2)) (UniProt P51681)",
  "sequence (P51681 whole entry)": "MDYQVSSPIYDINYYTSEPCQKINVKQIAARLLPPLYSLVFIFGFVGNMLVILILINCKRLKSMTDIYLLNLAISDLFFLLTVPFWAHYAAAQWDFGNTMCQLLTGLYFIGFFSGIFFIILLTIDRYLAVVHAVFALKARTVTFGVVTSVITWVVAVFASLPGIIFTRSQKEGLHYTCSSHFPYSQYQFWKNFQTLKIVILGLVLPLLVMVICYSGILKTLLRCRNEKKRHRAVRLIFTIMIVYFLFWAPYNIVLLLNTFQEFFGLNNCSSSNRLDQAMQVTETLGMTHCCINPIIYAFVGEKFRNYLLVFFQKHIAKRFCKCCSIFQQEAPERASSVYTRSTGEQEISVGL",
  "data": [
    {"substance": "CCL5 (CC chemokine ligand 5) recombinant protein (from UniProt P13501 24-91)", "values": [
      {"measurement": "CCR5 mRNA (qRT-PCR) in AsPC-1 cells in presence of CCL5, fold against untreated; decreased by maraviroc", "result": 11, "unit": "fold"},
      {"measurement": "CCR5 mRNA (qRT-PCR) in BxPC-3 cells in presence of CCL5, fold against untreated; decreased by maraviroc", "result": 7, "unit": "fold"},
      {"measurement": "CCR5 mRNA (qRT-PCR) in MIA PaCa-2 cells in presence of CCL5, fold against untreated; decreased by maraviroc", "result": 4, "unit": "fold"}
    ]}
  ]
}
